What is called IC50 is the concentration needed to halve the response being measured. A higher IC50 goes with a need for much substance.

Test [1] concerns the target Monoclonal antibody mAB 6F5 (anti-deoxynivalenol monoclonal antibody from hybridoma cell line 6F5). Kind of test: CD-ELISA, immobilized mAB 6F5; C430 competing with DON-HRP or C430-HRP conjugate.
For test [2], the target named is antiserum from C430-BSA-immunized mice. Kind of test: CI-ELISA, immobilized phage-displayed DONPEP.2, antiserum after the fourth injection, free C430 as competitor. In general terms: ELISA stands for enzyme-linked immunosorbent assay.

B1: synthetic peptide C430 (NH2-…-COOH) (peptide)
peptide: H-SWGPFPFGGGSC-OH
As for B1, the IC50 in test [1] was 640 to 800 nM; in test [2], 390 nM.

The values are drawn from patent US20030165991A1.
